Results on 167 variants are retold here after the RNAGym collection of RNA variant scans (doi:10.7554/elife.80360).

To fix the notation:
B1: Twister Ribozyme (parent)
chain: AACACUGCCAAUGCCGGUCCCAAGCCCGGAUAAAAGUGGAGGGGGCGG

This data set covers variants of B1. Put plainly: self-cleavage, relative activity (ratio to wild type); higher = more cleavage; co-transcriptional.
Take U12G G38U: the self-cleavage was determined as 0.76.
The figure for U12G G38C is 0.881; for C14G G36A it is 0.0659; for C14G G36C it is 0.065.
Then C14G G36U, with 0.0782.
The figure for C14U G44A is 1.08; for G13A G28U it is 0.623.
Regarding G13A G28A, the self-cleavage was found to be 0.579.
Then G13A G28C, with 0.581; and C14A G28A, with 0.818.
The figure for C14A G28U is 0.854.
Then C14A G28C, with 0.757; and G13A C20U, with 0.262.
Take G13A C20G: the self-cleavage is 0.115.
Then G13A C20A, with 0.09.
For G13U G44C, the self-cleavage is 0.488.
Turning to G13U G43A, the self-cleavage was 0.143.
The figure for G13U G28A is 0.543; for G13U G28U it is 0.466.
The figure for C14U G38A is 1.02.
Then C14U G38C, with 0.909; and G13A G47U, with 0.446; and C14U G42U, with 0.486.
As for C14U G42C, the self-cleavage was determined as 0.59.
Then C14G C46U, with 0.175.
With C14G C46G, the self-cleavage stood at 0.101.
Then C14A A32G, with 0.857; and U12G U37A, with 0.576; and C14A G48U, with 0.887.
The figure for C14A G48A is 0.868; for C14A C20U it is 0.977.
For the variant C14U A32C, the self-cleavage was determined as 1.03.
Then C14U A32G, with 1.07; and C14G A35U, with 0.125; and C14G G17A, with 0.122.
The figure for C14G G17C is 0.124; for G13A A22G it is 0.107; for G13A G16A it is 0.352.
The figure for G13A G16C is 0.106; for C14U G36U it is 0.421; for C14U G36C it is 0.464.
Take G13C G38U: the self-cleavage was 0.158.
Then G13C G38A, with 0.219.
Then G13U A34C, with 0.083.
The figure for G13U A34U is 0.199; for U12G G48C it is 0.929; for U12G G48A it is 0.593.
As for G13A C25G, the self-cleavage came to 0.0804.
The figure for G13A C25A is 0.0972.
G13A C25U: the self-cleavage worked out at 0.387.
The figure for G13U U31C is 0.639; for C14G A22G it is 0.0913; for C14U C19G it is 0.518.
Then G13C G24C, with 0.0811.
Then G13C G24A, with 0.0986; and G13C G44A, with 0.584; and G13A G39U, with 0.171.
For the variant G13A G39A, the self-cleavage is 0.202.
Then C14U C27G, with 0.108; and C14U G17U, with 0.373.
Then C14U G17C, with 0.152; and U12G G42C, with 0.369.
C14G A32G: the self-cleavage worked out at 0.117.
Then C14G A32C, with 0.12; and C14G C20G, with 0.111; and C14G C20U, with 0.25.
Then C14G C21U, with 0.0834.
The figure for C14G G48U is 0.128; for G13U G29A it is 0.368; for U12G G16A it is 0.864.
Consider U12G G16U, for which the self-cleavage was 0.937.
For the variant C14A G36U, the self-cleavage worked out at 0.221.
Then C14A G36A, with 0.651; and C14A G36C, with 0.351.
In the case of G13U G41U, the self-cleavage was 0.104.
For G13U G41A, the self-cleavage is 0.0904.
Then G13A C19G, with 0.123.
On to G13A A23G, for which the self-cleavage is 0.0799.
The figure for G13A A23U is 0.0933.
Then G13U G17A, with 0.078; and G13U G17U, with 0.101; and G13C A33C, with 0.236.
Then G13A C26U, with 0.142; and G13U G39U, with 0.0998.
G13U G39C: the self-cleavage came out at 0.11.
In the case of G13U A32C, the self-cleavage came to 0.595.
Then G13C C19A, with 0.0574; and G13A A30U, with 0.899.
The figure for G13A A30C is 0.771; for C14U C25G it is 0.627; for G13C U31C it is 0.552.
For the variant U12G G28A, the self-cleavage came to 0.799.
The figure for U12G G28U is 0.464.
Then C14A A23U, with 0.508.
Then C14A A23G, with 0.525; and C14G A33U, with 0.172; and G13U C19U, with 0.0924.
As for G13U C19A, the self-cleavage came out at 0.0828.
Then G13A G48A, with 0.659.
Then C14U A40G, with 0.21; and C14A C27U, with 0.75.
Then C14A U37C, with 0.619; and C14A U37G, with 0.725.
In the case of U12G C21A, the self-cleavage turned out to be 0.0849.
With U12G C21G, the self-cleavage was found to be 0.0698.
The figure for U12G C21U is 0.0878; for C14U G16U it is 0.778; for C14U A30C it is 1.08.
Then C14U A30U, with 1.06; and C14A A33U, with 0.908; and G13A C15A, with 0.46.
Then G13C G16C, with 0.044; and G13C G16A, with 0.129; and G13C G16U, with 0.132.
With C14G C19U, the self-cleavage came out at 0.426.
G13C A30C: the self-cleavage was 0.518.
Turning to G13C A30U, the self-cleavage was 0.612.
Then G13U C25G, with 0.0724; and G13C A23G, with 0.139; and G13C A23C, with 0.0801.
Consider C14A G16U, for which the self-cleavage stood at 0.394.
Then C14A G16A, with 0.641.
The figure for C14G G28A is 0.162.
Then C14G G28C, with 0.106; and C14G A30U, with 0.146; and G13U A30C, with 0.665.
With G13U A30G, the self-cleavage worked out at 0.926.
The figure for C14U C26U is 0.403; for C14A U31C it is 0.913.
The figure for C14A U31G is 0.942; for G13U A22C it is 0.708; for C14U C15G it is 0.36.
Then C14A A35U, with 0.789.
Take C14A A35C: the self-cleavage is 0.863.
The figure for G13C G39A is 0.118; for G13U C14A it is 0.687; for G13U C14G it is 0.512.
The figure for G13U G24C is 0.0723; for U12G G44U it is 0.799; for U12G G44C it is 0.681.
Then U12G G44A, with 0.784; and U12G G17U, with 0.239; and G13A U18G, with 0.0757.
For the variant G13A U18C, the self-cleavage worked out at 0.129.
The figure for C14U C21U is 0.141; for C14U C21A it is 0.108.
Then C14U G41C, with 0.343; and C14U G41U, with 0.719; and C14U G41A, with 0.698.
Then C14A G45U, with 0.698; and G13U G36A, with 0.13.
Consider G13U G36C, for which the self-cleavage turned out to be 0.0949.
The figure for C14G G29C is 0.228; for C14G G29U it is 0.192; for G13C U37A it is 0.075.
Then C14G C26U, with 0.0493; and C14G C25A, with 0.0733.
With G13A A32U, the self-cleavage was determined as 0.961.
Then G13A A32G, with 0.882.
Turning to G13C C25A, the self-cleavage turned out to be 0.0747.
Turning to G13C G45U, the self-cleavage is 0.144.
Then G13C C15U, with 0.0748.
Then C14G G44C, with 0.129; and G13C G43U, with 0.128; and G13U G16A, with 0.302.
On to C14U A33U, for which the self-cleavage is 1.07.
The figure for G13U A33C is 0.563.
